Experiments:
[1] = target: T1, human LRRC33-proTGFβ1 complex (human, UniProt Q86YC3 19-650; P01137 30-390); experiment: BLI (Octet)
T1 construct: also called hLRRC33-proTGFβ1; hLRRC33

[2] = target: T2, human GARP-proTGFβ1 complex (human, UniProt Q14392 20-627; P01137 30-390); experiment: BLI (Octet)
T2 construct: also called hGARP-proTGFβ1; hGARP

[3] = target: T3, human LTBP3-proTGFβ1 complex (human, UniProt Q9NS15 866-1039); experiment: BLI (Octet)
T3 construct: range 866-1039; also called hLTBP3-proTGFβ1; hLTBP3
T3 sequence (Q9NS15 866-1039 limits assumed, chain 1 of 2): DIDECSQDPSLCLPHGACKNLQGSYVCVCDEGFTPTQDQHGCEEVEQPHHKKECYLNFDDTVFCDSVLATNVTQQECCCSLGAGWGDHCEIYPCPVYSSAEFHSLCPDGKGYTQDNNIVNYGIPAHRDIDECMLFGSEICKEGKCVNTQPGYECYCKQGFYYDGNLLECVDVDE
T3 sequence (chain, as listed by the source limits assumed, chain 2 of 2): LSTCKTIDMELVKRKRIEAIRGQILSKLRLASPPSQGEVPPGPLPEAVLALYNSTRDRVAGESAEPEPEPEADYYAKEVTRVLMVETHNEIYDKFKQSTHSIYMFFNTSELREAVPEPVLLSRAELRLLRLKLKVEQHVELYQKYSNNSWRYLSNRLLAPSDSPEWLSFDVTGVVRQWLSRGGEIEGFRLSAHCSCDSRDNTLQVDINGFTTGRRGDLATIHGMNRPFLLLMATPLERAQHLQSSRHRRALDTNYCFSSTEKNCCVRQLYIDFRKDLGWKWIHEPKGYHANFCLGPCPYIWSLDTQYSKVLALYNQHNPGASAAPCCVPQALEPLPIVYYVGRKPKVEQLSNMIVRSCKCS

[4] = target: T4, human LTBP1-proTGFβ1 complex (human, UniProt Q14766 873-1507); experiment: BLI (Octet)
T4 construct: range 873-1507; biotinylated in Octet and MSD-SET; also called hLTBP1-proTGFβ1; hLTBP1
T4 sequence (Q14766 873-1507 limits assumed, chain 1 of 2): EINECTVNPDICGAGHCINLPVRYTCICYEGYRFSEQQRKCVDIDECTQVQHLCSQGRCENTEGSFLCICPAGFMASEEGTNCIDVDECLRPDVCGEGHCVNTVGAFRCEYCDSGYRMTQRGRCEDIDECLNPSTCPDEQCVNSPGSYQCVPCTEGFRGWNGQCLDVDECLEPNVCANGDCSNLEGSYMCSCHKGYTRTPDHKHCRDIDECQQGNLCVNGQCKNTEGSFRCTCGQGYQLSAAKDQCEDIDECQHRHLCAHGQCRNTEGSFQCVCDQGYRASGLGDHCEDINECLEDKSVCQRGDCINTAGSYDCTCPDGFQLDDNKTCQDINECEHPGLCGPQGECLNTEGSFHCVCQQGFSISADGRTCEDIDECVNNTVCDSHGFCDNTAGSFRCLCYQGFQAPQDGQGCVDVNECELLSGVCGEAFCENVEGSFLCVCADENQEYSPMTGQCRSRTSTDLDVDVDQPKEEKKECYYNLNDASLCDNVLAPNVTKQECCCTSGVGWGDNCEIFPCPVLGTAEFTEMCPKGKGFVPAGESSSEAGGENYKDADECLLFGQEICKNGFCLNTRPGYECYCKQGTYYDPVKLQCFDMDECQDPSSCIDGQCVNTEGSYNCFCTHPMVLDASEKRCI
T4 sequence (chain, as listed by the source limits assumed, chain 2 of 2): as the sequence (chain, as listed by the source limits assumed, chain 2 of 2) above

[5] = target: T1, human LRRC33-proTGFβ1 complex; experiment: MSD-SET, solution equilibrium titration
Description: (§1) MSD-SET assays were performed to measure affinities of the antibodies at equilibrium. Briefly, each test antibody was diluted 3-5 fold and samples were mixed with biotinylated antigen in a 48-well dish. The SET samples were equilibrated for 20-24 hours at room temperature. Meanwhile, a capture plate was coated with IgG (20 nM) and incubated overnight at 4° C. or 30 minutes at room temperature, followed by a blocking step with 5% BSA. After the capture plate was washed three times, SET samples were added and incubated for 150 seconds. The plate was washed once to remove unbound complexes. 250 ng/ml SA-Sulfotag was added then washed 3 times. 2× Read Buffer was added, and signals from the labeled bound complexes were read with the use of QuickPlex™ SQ 120 instrument.

[6] = target: T2, human GARP-proTGFβ1 complex; experiment: MSD-SET, solution equilibrium titration
Description: as §1

[7] = target: T3, human LTBP3-proTGFβ1 complex; experiment: MSD-SET, solution equilibrium titration
Description: as §1

[8] = target: T4, human LTBP1-proTGFβ1 complex; experiment: MSD-SET, solution equilibrium titration
Description: as §1

human proTGFβ1 C4S [9] = target: T5, human proTGFβ1 C4S (human, UniProt P01137 30-390); experiment: BLI (Octet Red384), proTGFβ1 C4S coupled to AR2G sensors, dissociation at pH 5; dissociation at pH 5
T5 construct: Small latent complex without presenting molecule; the cysteine that links to presenting molecules is changed to serine; also called small latent complex proTGFβ1 C4S; latent TGFβ1
T5 sequence (P01137 other isoform, or with tags, fused parts or gaps): as the sequence (chain, as listed by the source limits assumed, chain 2 of 2) above, with C4S counted along it
Description: (§2) The antibodies were tested against sensor-immobilized human proTGFβ1 C4S, which contains a mutation in the prodomain to facilitate proTGFβ1 expression without disulfide linkage to a presentation molecule. Polystyrene 96-well black half area plates (Greiner Bio-One) and amine reactive second-generation (AR2G) biosensors (FortéBio) were utilized for this experiment.
(§3) AR2G biosensors were first allowed to hydrate in water offline for at least 10 minutes before the initiation of the experiment. Upon initiation of the experiment, AR2G tips were equilibrated in water for 1 minute. Then, the tips were moved into an activation solution for 5 minutes. The activation solution consists of 18 parts water, 1 part 400 mM EDC (1-Ethyl-3-[3-dimethylaminopropyl] carbodiimide hydrochloride), and 1 part 200 mM s-NHS (N-hydroxysulfosuccinimide). The activation solution is prepared immediately before use in the experiment. After tip activation, the tips were loaded for 3 minutes with a 10 ug/mL solution of human proTGFβ1 C4S in 10 mM sodium acetate buffer pH 5. After loading, the tips were quenched in ethanolamine pH 8.5 for 15 minutes. The tips were then baseline/blocked with a 20 minute incubation in 1× enhanced kinetics buffer.

human proTGFβ1 C4S [10] = target: T5, human proTGFβ1 C4S; experiment: BLI (Octet Red384), proTGFβ1 C4S coupled to AR2G sensors, dissociation at pH 7; dissociation at pH 7
Description: as §2, §3

[11] = target: hLTBP3-proTGFβ1 complex made by transfected cells (cell-based potency assay) (human, UniProt Q9NS15 44-1303; P01137 30-390); experiment: cell-based or functional assay
[12] = target: hGARP-proTGFβ1 complex on cells (human, UniProt Q14392 20-662; P01137 30-390); experiment: cell-based or functional assay
Sequence of hGARP-proTGFβ1 complex on cells (Q14392 20-662 limits assumed, chain 1 of 2): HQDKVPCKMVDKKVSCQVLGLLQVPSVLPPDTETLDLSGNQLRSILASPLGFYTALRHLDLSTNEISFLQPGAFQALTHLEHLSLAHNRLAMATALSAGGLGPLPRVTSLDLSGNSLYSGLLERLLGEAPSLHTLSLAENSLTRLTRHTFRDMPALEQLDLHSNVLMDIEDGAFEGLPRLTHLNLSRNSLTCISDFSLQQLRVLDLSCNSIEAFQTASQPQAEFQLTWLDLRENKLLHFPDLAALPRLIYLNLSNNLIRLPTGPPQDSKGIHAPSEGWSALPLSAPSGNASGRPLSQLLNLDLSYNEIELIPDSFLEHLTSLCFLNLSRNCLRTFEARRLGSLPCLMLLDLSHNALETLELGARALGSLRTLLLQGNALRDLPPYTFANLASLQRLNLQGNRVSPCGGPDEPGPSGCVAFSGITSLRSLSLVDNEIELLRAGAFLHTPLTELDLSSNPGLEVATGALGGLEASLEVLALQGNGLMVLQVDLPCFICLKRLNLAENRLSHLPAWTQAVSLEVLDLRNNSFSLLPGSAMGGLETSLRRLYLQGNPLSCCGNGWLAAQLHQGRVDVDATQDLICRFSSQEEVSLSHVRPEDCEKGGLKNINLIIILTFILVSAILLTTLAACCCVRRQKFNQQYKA
Sequence of hGARP-proTGFβ1 complex on cells (P01137 30-390 limits assumed, chain 2 of 2): as the sequence (chain, as listed by the source limits assumed, chain 2 of 2) above

[13] = target: hLTBP1-proTGFβ1 complex made by transfected cells (cell-based potency assay) (human, UniProt Q14766 347-1721; P01137 30-390); experiment: cell-based or functional assay
[14] = target: hLRRC33-proTGFβ1 complex on cells (human, UniProt Q86YC3 19-692; P01137 30-390); experiment: cell-based or functional assay
Sequence of hLRRC33-proTGFβ1 complex on cells (Q86YC3 19-692 limits assumed, chain 1 of 2): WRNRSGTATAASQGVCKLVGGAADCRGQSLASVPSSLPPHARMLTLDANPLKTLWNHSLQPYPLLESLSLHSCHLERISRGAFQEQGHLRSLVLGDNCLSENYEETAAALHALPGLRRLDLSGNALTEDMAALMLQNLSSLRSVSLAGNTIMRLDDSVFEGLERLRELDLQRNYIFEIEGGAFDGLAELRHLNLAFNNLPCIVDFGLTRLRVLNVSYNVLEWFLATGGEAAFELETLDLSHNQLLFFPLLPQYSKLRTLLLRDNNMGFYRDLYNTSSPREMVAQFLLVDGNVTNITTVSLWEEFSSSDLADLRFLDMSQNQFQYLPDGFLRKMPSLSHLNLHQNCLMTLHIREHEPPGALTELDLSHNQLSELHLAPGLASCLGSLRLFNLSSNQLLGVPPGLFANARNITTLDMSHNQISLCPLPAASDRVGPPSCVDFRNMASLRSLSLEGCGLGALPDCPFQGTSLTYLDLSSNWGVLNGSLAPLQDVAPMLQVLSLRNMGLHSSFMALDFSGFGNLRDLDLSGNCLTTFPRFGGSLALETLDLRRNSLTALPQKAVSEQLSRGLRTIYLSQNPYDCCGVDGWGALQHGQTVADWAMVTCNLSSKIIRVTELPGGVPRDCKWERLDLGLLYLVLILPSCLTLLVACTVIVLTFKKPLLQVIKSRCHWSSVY
Sequence of hLRRC33-proTGFβ1 complex on cells (P01137 30-390 limits assumed, chain 2 of 2): as the sequence (chain, as listed by the source limits assumed, chain 2 of 2) above

T1 sequence (Q86YC3 other isoform, or with tags, fused parts or gaps limits assumed, chain 1 of 2): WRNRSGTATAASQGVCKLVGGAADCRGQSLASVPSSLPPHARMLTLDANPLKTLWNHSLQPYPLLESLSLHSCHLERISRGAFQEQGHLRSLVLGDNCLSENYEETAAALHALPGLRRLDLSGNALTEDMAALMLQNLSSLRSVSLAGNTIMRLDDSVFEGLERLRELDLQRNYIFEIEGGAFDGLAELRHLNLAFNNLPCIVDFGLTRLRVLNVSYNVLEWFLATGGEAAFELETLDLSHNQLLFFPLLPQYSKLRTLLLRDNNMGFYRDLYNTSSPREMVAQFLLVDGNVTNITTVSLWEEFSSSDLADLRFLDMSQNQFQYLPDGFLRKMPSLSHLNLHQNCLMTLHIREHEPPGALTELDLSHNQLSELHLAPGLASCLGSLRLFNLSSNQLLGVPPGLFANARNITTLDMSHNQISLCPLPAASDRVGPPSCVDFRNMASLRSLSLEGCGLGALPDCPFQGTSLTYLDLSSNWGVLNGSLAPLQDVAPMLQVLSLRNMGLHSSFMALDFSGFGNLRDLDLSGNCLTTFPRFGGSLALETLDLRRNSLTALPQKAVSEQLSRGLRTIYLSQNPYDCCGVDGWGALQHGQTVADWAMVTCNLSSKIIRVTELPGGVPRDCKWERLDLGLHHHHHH
T1 sequence (P01137 30-390 limits assumed, chain 2 of 2): as the sequence (chain, as listed by the source limits assumed, chain 2 of 2) above
T2 sequence (Q14392 20-627, chain 1 of 2): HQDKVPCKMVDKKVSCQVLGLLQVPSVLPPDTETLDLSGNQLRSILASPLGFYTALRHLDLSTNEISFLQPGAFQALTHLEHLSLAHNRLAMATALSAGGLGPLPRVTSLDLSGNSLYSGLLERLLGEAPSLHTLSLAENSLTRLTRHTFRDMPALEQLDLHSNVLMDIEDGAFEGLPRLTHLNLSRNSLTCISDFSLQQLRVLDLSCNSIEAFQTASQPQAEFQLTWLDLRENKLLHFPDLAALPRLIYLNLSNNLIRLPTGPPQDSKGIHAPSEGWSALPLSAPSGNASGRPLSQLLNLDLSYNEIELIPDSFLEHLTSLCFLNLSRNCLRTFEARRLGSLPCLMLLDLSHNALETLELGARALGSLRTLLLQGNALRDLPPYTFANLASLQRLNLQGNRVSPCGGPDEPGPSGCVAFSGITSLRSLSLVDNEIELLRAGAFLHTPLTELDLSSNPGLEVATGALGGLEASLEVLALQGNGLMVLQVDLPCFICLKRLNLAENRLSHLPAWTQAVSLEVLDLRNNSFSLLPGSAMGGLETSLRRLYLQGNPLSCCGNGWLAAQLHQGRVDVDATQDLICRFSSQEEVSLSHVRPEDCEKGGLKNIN
T2 sequence (P01137 30-390, chain 2 of 2): as the sequence (chain, as listed by the source limits assumed, chain 2 of 2) above

B1: Ab2 (antibody, human IgG4 S228P, kappa, V domains shown)
VH: EVQLLESGGGLVQPGGSLRLSCAASGFTFADYAMTWVRQAPGKGLEWVSAISGSGAATYFADSVKGRFTISRDNSKNTLYLQMNSLRAEDTAVYYCARVSSGHWDFDYWGQGTLVTVSS
VL: DIQLTQSPSSLSASVGDRVTITCRASQSISSYLNWYQQKPGKAPKLLIYAASNLQSGVPSRFSGSGSGTDFTLTISSLQPEDFATYYCQQTYTVPLTFGGGTKVEIKR
Kd [1]: 0.508 nM | Kd [2]: 0.778 nM | Kd [3]: 0.148 nM | Kd [4]: 0.165 nM | Kd [5]: 3.2 nM | Kd [6]: 1.4 nM | Kd [7]: 0.171 nM | Kd [8]: 0.36 nM | koff (human proTGFβ1 C4S [9]): 0.00561 s⁻¹ | koff (human proTGFβ1 C4S [10]): 0.00278 s⁻¹ | IC50, reporter cell assay of TGFβ1 activation [11]: 0.867 nM | IC50, reporter cell assay of TGFβ1 activation [12]: 0.776 nM | IC50, reporter cell assay of TGFβ1 activation [13]: 3.39 nM | IC50, reporter cell assay of TGFβ1 activation [14]: 1.38 nM

From US20220064275A1 (SCHOLAR ROCK, published 2022)
